This assay has as its target T1, GST-tagged human LRRK2 wild type (amino acids 970-2527) (human, UniProt Q5S007 970-2527).
T1 construct: LRRK2, human, amino acids 970-2527; also called GST-LRRK2; GST-LRRK2 (aa 970-2527); source: bought: Invitrogen
The assay is described as follows: pull-down; GST-LRRK2 (aa 970-2527; 1 µg) or GST (1 µg) incubated with His-HDAC6 (1 µg) in 250 µl RB100 buffer (25 mM HEPES pH 7.5, 100 mM KOAc, 10 mM MgCl2, 1 mM DTT, 0.05% Triton X-100, 10% glycerol) for 1 h at 4°C; captured on glutathione sepharose; immunoblot. As to conditions: both partners purified. (In general: In western blotting, separated proteins are transferred to a membrane and probed.)

T1 sequence (Q5S007 970-2527): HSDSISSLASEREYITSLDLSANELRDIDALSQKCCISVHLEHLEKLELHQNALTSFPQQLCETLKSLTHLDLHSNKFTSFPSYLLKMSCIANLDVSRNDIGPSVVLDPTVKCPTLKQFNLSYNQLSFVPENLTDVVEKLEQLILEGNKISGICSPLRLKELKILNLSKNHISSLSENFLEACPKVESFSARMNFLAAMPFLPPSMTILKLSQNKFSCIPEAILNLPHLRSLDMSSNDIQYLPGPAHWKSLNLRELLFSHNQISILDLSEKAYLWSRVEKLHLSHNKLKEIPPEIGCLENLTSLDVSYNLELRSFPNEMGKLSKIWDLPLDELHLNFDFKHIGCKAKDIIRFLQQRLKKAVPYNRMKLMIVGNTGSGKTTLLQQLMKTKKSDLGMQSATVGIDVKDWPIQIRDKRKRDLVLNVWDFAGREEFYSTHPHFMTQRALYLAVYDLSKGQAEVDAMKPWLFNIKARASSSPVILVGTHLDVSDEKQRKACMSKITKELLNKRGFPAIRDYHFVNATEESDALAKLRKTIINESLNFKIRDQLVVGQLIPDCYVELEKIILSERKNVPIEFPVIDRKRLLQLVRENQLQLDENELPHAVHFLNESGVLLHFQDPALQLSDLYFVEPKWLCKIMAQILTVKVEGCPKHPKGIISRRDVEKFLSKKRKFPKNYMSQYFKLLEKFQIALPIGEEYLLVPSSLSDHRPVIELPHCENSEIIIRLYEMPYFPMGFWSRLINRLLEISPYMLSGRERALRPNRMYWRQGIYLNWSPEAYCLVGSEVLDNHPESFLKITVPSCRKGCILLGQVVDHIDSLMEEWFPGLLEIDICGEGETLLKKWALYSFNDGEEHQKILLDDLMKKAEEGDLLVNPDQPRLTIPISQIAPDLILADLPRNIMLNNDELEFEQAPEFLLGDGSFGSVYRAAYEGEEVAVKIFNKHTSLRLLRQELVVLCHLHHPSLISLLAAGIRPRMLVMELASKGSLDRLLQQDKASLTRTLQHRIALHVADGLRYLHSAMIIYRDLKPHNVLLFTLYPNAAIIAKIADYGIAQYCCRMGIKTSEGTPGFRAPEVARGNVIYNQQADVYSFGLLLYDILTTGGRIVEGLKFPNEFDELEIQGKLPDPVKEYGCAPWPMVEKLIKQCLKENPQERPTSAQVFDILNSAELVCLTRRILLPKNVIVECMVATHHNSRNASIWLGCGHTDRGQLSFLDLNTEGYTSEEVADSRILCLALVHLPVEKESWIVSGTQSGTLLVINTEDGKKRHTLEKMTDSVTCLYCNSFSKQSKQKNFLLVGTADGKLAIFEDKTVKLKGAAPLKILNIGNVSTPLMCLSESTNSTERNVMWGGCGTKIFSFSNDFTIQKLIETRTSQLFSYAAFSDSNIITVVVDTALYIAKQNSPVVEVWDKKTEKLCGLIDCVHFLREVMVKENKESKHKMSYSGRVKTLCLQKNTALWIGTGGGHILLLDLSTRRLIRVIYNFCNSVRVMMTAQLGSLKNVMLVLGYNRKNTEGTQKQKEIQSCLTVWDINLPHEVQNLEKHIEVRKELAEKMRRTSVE

B1: recombinant His-tagged human HDAC6 protein (enzyme, UniProt Q9UBN7 1-1215, looked up)
chain: MTSTGQDSTTTRQRRSRQNPQSPPQDSSVTSKRNIKKGAVPRSIPNLAEVKKKGKMKKLGQAMEEDLIVGLQGMDLNLEAEALAGTGLVLDEQLNEFHCLWDDSFPEGPERLHAIKEQLIQEGLLDRCVSFQARFAEKEELMLVHSLEYIDLMETTQYMNEGELRVLADTYDSVYLHPNSYSCACLASGSVLRLVDAVLGAEIRNGMAIIRPPGHHAQHSLMDGYCMFNHVAVAARYAQQKHRIRRVLIVDWDVHHGQGTQFTFDQDPSVLYFSIHRYEQGRFWPHLKASNWSTTGFGQGQGYTINVPWNQVGMRDADYIAAFLHVLLPVALEFQPQLVLVAAGFDALQGDPKGEMAATPAGFAQLTHLLMGLAGGKLILSLEGGYNLRALAEGVSASLHTLLGDPCPMLESPGAPCRSAQASVSCALEALEPFWEVLVRSTETVERDNMEEDNVEESEEEGPWEPPVLPILTWPVLQSRTGLVYDQNMMNHCNLWDSHHPEVPQRILRIMCRLEELGLAGRCLTLTPRPATEAELLTCHSAEYVGHLRATEKMKTRELHRESSNFDSIYICPSTFACAQLATGAACRLVEAVLSGEVLNGAAVVRPPGHHAEQDAACGFCFFNSVAVAARHAQTISGHALRILIVDWDVHHGNGTQHMFEDDPSVLYVSLHRYDHGTFFPMGDEGASSQIGRAAGTGFTVNVAWNGPRMGDADYLAAWHRLVLPIAYEFNPELVLVSAGFDAARGDPLGGCQVSPEGYAHLTHLLMGLASGRIILILEGGYNLTSISESMAACTRSLLGDPPPLLTLPRPPLSGALASITETIQVHRRYWRSLRVMKVEDREGPSSSKLVTKKAPQPAKPRLAERMTTREKKVLEAGMGKVTSASFGEESTPGQTNSETAVVALTQDQPSEAATGGATLAQTISEAAIGGAMLGQTTSEEAVGGATPDQTTSEETVGGAILDQTTSEDAVGGATLGQTTSEEAVGGATLAQTTSEAAMEGATLDQTTSEEAPGGTELIQTPLASSTDHQTPPTSPVQGTTPQISPSTLIGSLRTLELGSESQGASESQAPGEENLLGEAAGGQDMADSMLMQGSRGLTDQAIFYAVTPLPWCPHLVAVCPIPAAGLDVTQPCGDCGTIQENWVCLSCYQVYCGRYINGHMLQHHGNSGHPLVLSYIDLSAWCYYCQAYVHHQALLDVKNIAHQNKFGEDMPHPH
notes: Histone deacetylase 6 (HDAC6), human, full length; also called His-HDAC6; full-length human His-HDAC6; source: bought: EMD Millipore
Turning to B1, the binding result was “binds”.

(Values after article doi:10.1101/554881, “LRRK2-mediated phosphorylation of HDAC6 regulates HDAC6-cytoplasmic dynein interaction and aggresome formation” (bioRxiv, 2019).)
